How the values were obtained:
[1] = system: cartilage; settings: for Cartilage (C): percentage of signal in the cartilage compared to the blood signal in the heart ventricle / Muscle (M): signal compared to the level in the blood: 3 hours after administration, ligated kidneys, 14C-labelled peptide, tail vein
Method: This example describes a dosing scheme for administering knottin peptides to mice in conjunction with kidney ligation. Different dosages of the peptides were administered to Female Harlan athymic nude mice, weighing 20 g-25 g, via tail vein injection (n=2 mice per knottin). The experiment was done in duplicates. The kidneys were ligated to prevent renal filtration of the peptides. Each peptide was radiolabeled by methylating lysines and the N-terminus, so the actual binding agent may contain methyl or dimethyl lysine(s) and a methylated or dimethylated amino terminus.
A target dosage of 50-100 nmol of each peptide carrying 10-25 uCi of ^14C was administered to Female Harlan athymic nude mice while anesthetized. Each peptide was allowed to freely circulate within the animal before the animals were euthanized and sectioned.
This example illustrates peptide homing to cartilage of mice with kidneys that were ligated prior to peptide administration. At the end of the dosing period in EXAMPLE 3, mice were frozen in a hexane/dry ice bath and then frozen in a block of carboxymethylcellulose. […] Thin, frozen sections of animal including imaging of tissues such as brain, tumor, liver, kidney, lung, heart, spleen, pancreas, muscle, adipose, gall bladder, upper gastrointestinal tract, lower gastrointestinal tract, bone, bone marrow, reproductive track, eye, cartilage, stomach, skin, spinal cord, bladder, salivary gland, and other types of tissues were obtained with a microtome, allowed to desiccate in a freezer, and exposed to phosphoimager plates for about ten days.
These plates were developed, and the signal (densitometry) from each organ was normalized to the signal found in the heart blood of each animal. A signal in tissue darker than the signal expected from blood in that tissue indicates peptide accumulation in a region, tissue, structure or cell. For instance, the cartilage is avascular and contains minute amounts of blood. A ratio of at least 170% signal in the cartilage versus heart ventricle was chosen as a reference level for significant targeting to cartilage, which also correlated with clear accumulation in cartilaginous tissues in the images of the slices.
The SEQ ID NO: 24 peptide was radiolabeled as in Example 3 and 100 nmol of peptide was injected into a mouse with intact kidneys. FIG. 5 illustrates the retention of and the tissue distribution in the cartilage of a peptide of SEQ ID NO: 24, 24 hours after administration.

[2] = system: cartilage; test: Cartilage homing, no method given; settings: in vivo
[3] = system: cartilage (IVD, knee / synovial joints); test: Whole body autoradiography (WBA) of radiolabeled cartilage homing peptides (Example 21); type: in vivo, Female Harlan athymic nude mice; settings: for Signal in the intervertebral disc (IVD), Average: percentage of blood
Method: This example illustrates peptide homing to cartilage mice 5 minutes to 48 hours after administration of a radiolabeled peptide. Signal from the radiolabeled peptides was found in all types of cartilage at each time point examined. Each peptide was radiolabeled by methylating […] as described in EXAMPLE 2. As such, the peptide may contain methyl or dimethyl lysines and a methylated or dimethylated amino terminus. A dose of 100 nmol radiolabeled peptide was administered via tail vein injection in Female Harlan athymic nude mice, weighing 20-25 g. The experiment was done in duplicate (n=2 animals per group). In some animals, kidneys were ligated to prevent renal filtration of the radiolabeled peptides and extend plasma half-life. Each radiolabeled peptide was allowed to freely circulate within the animal for the described time period before the animals were euthanized and sectioned.
Whole body autoradiography (WBA) sagittal sectioning was performed as follows. […] Sections were allowed to desiccate in a freezer prior to imaging.
For the autoradiography imaging, tape mounted thin sections were freeze dried and radioactive samples were exposed to phophoimager plates for 7 days.

[4] = Peptide resistance to reducing agents (10 mM DTT, RP-HPLC); type: physicochemical; settings: 10 mM DTT in PBS, room temperature, 30 minutes
Method: Several peptides were suspended in 500 μl of ddH2O to a stock concentration of 2 mg/ml. Reactions were prepared by adding 12.5 μg peptide from the stock solution to a 10 mM solution of DTT in PBS and allowed to incubate at room temperature for 30 minutes. RP-HPLC was run on samples using an Agilent 1260 HPLC equipped with a C-18 Poroshell 120B column. Samples were analyzed by a gradient method with a mobile phase of Solvent A (water with 0.1% TFA) and Solvent B (acetonitrile with 0.1% TFA). Solvent B was ramped up from 5%-45% of the mobile phase over a period of 10 minutes.
Peptides were fractionated by HPLC and without any further sample prep, 5 μl of the sample was injected into the mass spectrometer at 1 mg/ml using a CTCPAL® autosampler. Alternatively, if peptides were provided as a lyophilized powder, the sample was dissolved in 100% water to a concentration of 1 mg/ml a Millipore Ziptip C18® column was used to desalt the peptides prior to injection for ES-MS. The mass spectrometer was calibrated using 5 pmol of mixture of five standard peptides to achieve a high accuracy of mass determination with less than a 10 ppm error. Confirmation of peptide disulfide bond formation was achieved by analyzing the m/z isotopic distribution and the exact charge. All peptides tested are shown under reducing and non-reducing conditions.

[5] = Temperature stability of peptides (RP-HPLC); type: physicochemical
Method: This example illustrates peptide stability at high temperatures. Peptides were first suspended in 500 μl of ddH2O to a stock concentration of 2 mg/ml. Reactions were prepared by adding 6.25 μl of peptide from the stock solution with 95 μl ddH2O and incubated at room temperature, 70° C., or 100° C. for one hour in a Thermocycler. RP-HPLC was then run on samples using an Agilent 1260 HPLC equipped with a C-18 Poroshell 120B column. Sample were analyzed by a gradient method with a mobile phase of Solvent A (water with 0.1% TFA) and Solvent B (acetonitrile with 0.1% TFA). Solvent B was ramped up from 5%-45% of the mobile phase over a period of 10 minutes.
Peptides of SEQ ID NO: 28 and SEQ ID NO: 483 were analyzed by HPLC after incubation at room temperature (25° C.), 70° C., or 100° C. for one hour.

[6] = 3 hr after 100 nmol radiolabeled peptide
[7] = 24 hr after 100 nmol radiolabeled peptide

Row | Substance | Cartilage (C): percentage of signal in the cartilage compared to the blood signal in the heart ventricle [1] | Muscle (M): signal compared to the level in the blood [1] | further results
1 | 483 (GSISIGIKCSPSIDLCEGQCRIRKYFTGYCSGDTCHCSG) [compound 483] | 67% | 24% | –
2 | 30 (GSQIYTSKECNGSSECYSHCEGITGKRSGKCINKKCYCYR) [compound 30] | 221% | 26% | –
3 | 21 (GSGIVCKVCKIICGMQGKKVNICKAPIKCKCKKG) [compound 21] | 270% | 36% | –
4 | 31 (GSGCLEFWWKCNPNDDKCCRPKLKCSKLFKLCNFSFG) [compound 31] | 306% | 68% | –
5 | 25 (GSAVCVYRTCDKDCKRRGYRSGKCINNACKCYPYG) [compound 25] | 358% | 24% | –
6 | 24 (GSGVPINVKCRGSRDCLDPCKKAGMRFGKCINSKCHCTP) [compound 24] | 624% | 34% | –
7 | VFINVKCRGSPECLPKCKEAIGKSAGKCMNGKCKCYP [SEQ ID NO: 422] | – | – | Cartilage homing [2]: homes to cartilage
8 | GSGDCLPHLKRCKENNDCCSKKCKRRGANPEKRCR [SEQ ID NO: 205] | – | – | Cartilage homing [2]: home to cartilage
9 | GSQVQTNVRCQGGSCASVCRREIGVAAGRCINGRCVCYRN [SEQ ID NO: 114] | – | – | Cartilage homing (qualitative, WBA) ([3]; 100 nmol radiolabeled peptide): showed signal in cartilage and exhibited cartilage homing properties; Change of signal in IVD and joint cartilage between 3 and 24 hours ([3]; 100 nmol radiolabeled peptide): reduced residence time with a signal near the limit of detection by 24 hours; Signal in synovial joints as a percentage of signal in blood, Average [3, 6]: 1175%; Signal in the intervertebral disc (IVD), Average [3, 6]: 1075%; Signal in the intervertebral disc (IVD), Average [3, 7]: 191%
10 | GSGDCLPHLRRCRENNDCCSRRCRRRGANPERRCR [SEQ ID NO: 200] | – | – | Cartilage homing (qualitative, WBA) ([3]; 100 nmol radiolabeled peptide): showed signal in cartilage and exhibited cartilage homing properties; Change of signal in IVD and joint cartilage between 3 and 24 hours ([3]; 100 nmol radiolabeled peptide): maintained or increased; Signal in the intervertebral disc (IVD), Average [3, 6]: 1809%; Signal in synovial joints as a percentage of signal in blood, Average [3, 7]: 4991%; Signal in the intervertebral disc (IVD), Average [3, 7]: 3542%
11 | 26 (GSISCTGSKQCYDPCKRKTGCPNAKCMNKSCKCYGCG) [compound 26] | 413% | 38% | –
12 | 29 (GSACKGVFDACTPGKNECCPNRVCSDKHKWCKWKL) [compound 29] | 243% | 26% | –
13 | 23 (GSVRIPVSCKHSGQCLKPCKDAGMRFGKCMNGKCDCTPK) [compound 23] | 497% | 26% | –
14 | 28 (GSEVIRCSGSKQCYGPCKQQTGCTNSKCMNKVCKCYGCG) [compound 28] | 361% | 17% | –
15 | GSQKILSNRCNNSSECIPHCIRIFGTRAAKCINRKCYCYP [SEQ ID NO: 196] | – | – | HPLC peaks under non-reducing versus reducing conditions (resistance to reduction by DTT) [4]: Peaks showing the peptide under non-reducing conditions and reducing conditions are overlapping
16 | GSEVIRCSGSKQCYGPCKQQTGCTNSKCMNKVCKCYGCG [SEQ ID NO: 28] | – | – | Stability after heat incubation (HPLC) ([5]; 70 C for 1 hour): resistant to heat-induced degradation; Stability after heat incubation (HPLC) ([5]; 100 C for 1 hour): underwent various degrees of degradation
17 | 27 (GSQVQTNVKCQGGSCASVCRREIGVAAGKCINGKCVCYRN) [compound 27] | 448% | 31% | –
18 | 198 (GSAVCNLKRCQLSCRSLGLLGKCIGDKCECVKHG) [compound 198] | 276% | 26% | –
19 | GSVRIPVSCRHSGQCLRPCRDAGIVIRFGRCMNGRCDCTPR [SEQ ID NO: 110] | – | – | Cartilage homing (qualitative, WBA) ([3]; 100 nmol radiolabeled peptide): showed signal in cartilage and exhibited cartilage homing properties; Change of signal in IVD and joint cartilage between 3 and 24 hours ([3]; 100 nmol radiolabeled peptide): decreased; Signal in synovial joints as a percentage of signal in blood, Average [3, 6]: 3142%; Signal in the intervertebral disc (IVD), Average [3, 6]: 2374%; Signal in synovial joints as a percentage of signal in blood, Average [3, 7]: 981%; Signal in the intervertebral disc (IVD), Average [3, 7]: 1327%
20 | GSKCLPPGKPCYGATQKIPCCGVCSHNNCT [SEQ ID NO: 433, reference compound] | – | – | Homing to cartilage (autoradiography, FIG. 11) ([1]; 24 hours after administration of 100 nmol): did not home to cartilage and was seen in the bone marrow
21 | 196 (GSQKILSNRCNNSSECIPHCIRIFGTRAAKCINRKCYCYP) [compound 196] | 291% | 30% | –
22 | GSSERDCIRHLQRCRENRDCCSRRCSRRGTNPERRCR [SEQ ID NO: 109] | – | – | Cartilage homing (qualitative, WBA) ([3]; 100 nmol radiolabeled peptide): showed signal in cartilage and exhibited cartilage homing properties; Change of signal in IVD and joint cartilage between 3 and 24 hours ([3]; 100 nmol radiolabeled peptide): maintained or increased; Rank of signal in cartilage among SEQ ID NO: 109, 200, 110, 114 ([3]; 100 nmol radiolabeled peptide): highest signal in cartilage; Signal in synovial joints as a percentage of signal in blood, Average [3, 6]: 5627%; Signal in the intervertebral disc (IVD), Average [3, 6]: 2758%; Signal in synovial joints as a percentage of signal in blood, Average [3, 7]: 5097%; Signal in the intervertebral disc (IVD), Average [3, 7]: 4367%
23 | GSSEKDCIKHLQRCRENKDCCSKKCSRRGTNPEKRCR [SEQ ID NO: 22] | – | – | Cartilage homing [2]: home to cartilage
24 | 433 (GSKCLPPGKPCYGATQKIPCCGVCSHNNCT) [compound 433] | 156% | 20% | –
25 | 22 (GSSEKDCIKHLQRCRENKDCCSKKCSRRGTNPEKRCR) [compound 22] | 337% | 27% | –
26 | 33 (GSGCFGYKCDYYKGCCSGYVCSPTWKWCVRPGPGR) [compound 33] | 179% | 28% | –
27 | 485 (METDTLLLWVLLLWVPGSTG) [compound 485] | 92% | 21% | –

— patent US11648290B2, “Cartilage-homing peptides” (FRED HUTCHINSON CANCER CENTER, priority 2015, dated 2023)
